Source: US20200325220A1 (published 2020)

B1: C6b (antibody)
heavy: not shown
light: EIVLTQSPGTLSLSPGETAILSCRASQSVSSSLLAWYQQKPGQAPRLLIYGASNRATGIRGRFSGSGSGTDFTLTISRLEPEDFVLYYCQHYGSRVTFGQGTKLEIKRTVAAPSVFIFPPSDEQLKSGTASVVCLLNNFYPREAKVQWKVDNALQSGNSQESVTEQDSKDSTYSLSSTLTLSKADYEKHKVYACEVTHQGLSSPVTKSFNRGEC
B2: C6 (antibody)
heavy: not shown
light: EIVLTQSPGTLSLSPGETAILSCRASQSVSSSLLAWYQQKPGQAPRLLIYGASNRATGIRGRFSGSGSGTDFTLTISRLEPEDFVLYYCQHYGSRVTFGQGTKLEIKRTVAAPSVFIFPPSDEQLKSGTASVVCLLNNFYPREAKVQWKVDNALQSGNSQESVTEQDSKDSTYSLSSTLTLSKADYEKHKVYACEVTHQGLSSPVTKSFNRGEC
B3: C5b (antibody)
heavy: not shown
light: EIVLTQSPGTLSLSPGETAILSCRASQSVSSSLLAWYQQKPGQAPRLLIYGASNRATGIRGRFSGSGSGTDFTLTISRLEPEDFVLYYCQHYGSRVTFGQGTKLEIKRTVAAPSVFIFPPSDEQLKSGTASVVCLLNNFYPREAKVQWKVDNALQSGNSQESVTEQDSKDSTYSLSSTLTLSKADYEKHKVYACEVTHQGLSSPVTKSFNRGEC
B4: C5 (antibody)
heavy: not shown
light: EIVLTQSPGTLSLSPGETAILSCRASQSVSSSLLAWYQQKPGQAPRLLIYGASNRATGIRGRFSGSGSGTDFTLTISRLEPEDFVLYYCQHYGSRVTFGQGTKLEIKRTVAAPSVFIFPPSDEQLKSGTASVVCLLNNFYPREAKVQWKVDNALQSGNSQESVTEQDSKDSTYSLSSTLTLSKADYEKHKVYACEVTHQGLSSPVTKSFNRGEC
B5: C9 (antibody, V domains shown)
VH: DVQLVESGGGVVRPGVSLRLSCVASGFSFKNYDMAWVRQVPGKGLEWVCGINWNGSLRGYADSVKGRFLISRDHAKDSLYLQMSRLRAEDTALYYCARDPGYNTGRDHPYDLWGQGTMVTVSS
VL: DIQMTQSPSTLSASVGDRVTITCRASQSISSWLAWYQQKPGKAPKLLIYKASSLGSGVPSRFSGSGSGTQFTLTISSLQPDDFATYYCQQYNNYPYTFGQGTKLEIKR
B6: GCE536 (antibody)
heavy: not shown
light: EIVLTQSPGTLSLSPGETAILSCRASQSVSSSLLAWYQQKPGQAPRLLIYGASNRATGIRGRFSGSGSGTDFTLTISRLEPEDFVLYYCQHYGSRVTFGQGTKLEIKRTVAAPSVFIFPPSDEQLKSGTASVVCLLNNFYPREAKVQWKVDNALQSGNSQESVTEQDSKDSTYSLSSTLTLSKADYEKHKVYACEVTHQGLSSPVTKSFNRGEC

Assays:
Experiment in all cases: ELISA
recombinant human GM-CSF = recombinant human GM-CSF (human, UniProt P04141 18-144)
recombinant human GM-CSF, sequence (P04141 18-144): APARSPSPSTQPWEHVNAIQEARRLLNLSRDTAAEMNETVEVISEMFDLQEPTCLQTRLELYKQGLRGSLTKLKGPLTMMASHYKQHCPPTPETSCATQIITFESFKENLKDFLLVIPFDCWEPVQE

αSLAM = target: αSLAM
αPD-1 = target: αPD-1
Strep-tactin = target: Strep-tactin

Binder	EC50 (recombinant human GM-CSF)	EC50 (αSLAM)	EC50 (αPD-1)	EC50 (Strep-tactin)
B1	0.0324 µg/mL	0.0885 µg/mL	~1350 µg/mL	–
B2	–	0.0958 µg/mL	~743 µg/mL	–
B3	0.0355 µg/mL	~397 µg/mL	0.0371 µg/mL	–
B4	0.0515 µg/mL	~632 µg/mL	0.0585 µg/mL	–
B5	–	–	–	0.187 µg/mL
B6	0.0492 µg/mL	–	–	–
